Results taken from the supplement of paper PMC5998384.

What was measured:
HeLa Kyoto [1] = experiment: melting temperature (median over replicates), in situ; higher = more thermally stable
HeLa Kyoto [2] = experiment: solubility in G1/S (NP-40 vs SDS abundance) (log2 ratio); higher = more soluble; conditions: cell cycle stage: G1/S
HeLa Kyoto [3] = experiment: solubility change mitosis vs G1/S (difference of NP-40 vs SDS log2 ratios) (log2 ratio difference); higher = more soluble in mitosis
HeLa Kyoto [4] = experiment: thermal stability score vs G1/S (z-score of summed log2 fold changes over temperatures); higher = more thermally stable than in G1/S
[5] = cell cycle stage: early G1 (4.5 h after nocodazole release)
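For melting temperature (median over replicates), in situ in this document: HeLa Kyoto cells synchronized by double thymidine or nocodazole block, proteins quantified by TMT10plex mass spectrometry, three independent biological replicates.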
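For solubility change mitosis vs G1/S (difference of NP-40 vs SDS log2 ratios) in this document: synchronized HeLa Kyoto cells (double thymidine block for G1/S, nocodazole release for mitosis), protein amounts in NP-40 versus SDS lysates quantified by mass spectrometry, three biological replicates.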
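For solubility in G1/S (NP-40 vs SDS abundance) in this document: HeLa Kyoto cells arrested at G1/S by double thymidine block, proteins quantified by TMT10plex mass spectrometry in mild NP-40 versus SDS extracts, three biological replicates.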
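For thermal stability score vs G1/S (z-score of summed log2 fold changes over temperatures) in this document: synchronized HeLa Kyoto cells, proteins quantified by TMT10plex mass spectrometry, three biological replicates, mitosis taken 0.5 h after nocodazole release, G1/S directly after double thymidine block.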

Row | Sequence | melting temperature (HeLa Kyoto [1]; cell cycle stage: G1/S) [°C] | melting temperature (HeLa Kyoto [1]; cell cycle stage: mitosis) [°C] | solubility in G1/S (log2) (HeLa Kyoto [2]) | solubility change mitosis (log2) (HeLa Kyoto [3]) | thermal stability score (HeLa Kyoto [4]; [5]) | thermal stability score (HeLa Kyoto [4]; cell cycle stage: mitosis)
1 | MGRRRAPELYRAPFPLYALQVDPSTGLLIAAGGGGAAKTGIKNGVHFLQLELINGRLSASLLHSHDTETRATMNLALAGDILAAGQDAHCQLLRFQAHQQQGNKAEKAGSKEQGPRQRKGAAPAEKKCGAETQHEGLELRVENLQAVQTDFSSDPLQKVVCFNHDNTLLATGGTDGYVRVWKVPSLEKVLEFKAHEGEIEDLALGPDGKLVTVGRDLKASVWQKDQLVTQLHWQENGPTFSSTPYRYQACRFGQVPDQPAGLRLFTVQIPHKRLRQPPPCYLTAWDGSNFLPLRTKSCGHEVVSCLDVSESGTFLGLGTVTGSVAIYIAFSLQCLYYVREAHGIVVTDVAFLPEKGRGPELLGSHETALFSVAVDSRCQLHLLPSRRSVPVWLLLLLCVGLIIVTILLLQSAFPGFL [PREB] | 53.8 | 54.1 | -0.0601 | -0.103 | -0.808 | -1.93
2 | MGRRSRGRRLQQQQRPEDAEDGAEGGGKRGEAGWEGGYPEIVKENKLFEHYYQELKIVPEGEWGQFMDALREPLPATLRITGYKSHAKEILHCLKNKYFKELEDLEVDGQKVEVPQPLSWYPEELAWHTNLSRKILRKSPHLEKFHQFLVSETESGNISRQEAVSMIPPLLLNVRPHHKILDMCAAPGSKTTQLIEMLHADMNVPFPEGFVIANDVDNKRCYLLVHQAKRLSSPCIMVVNHDASSIPRLQIDVDGRKEILFYDRILCDVPCSGDGTMRKNIDVWKKWTTLNSLQLHGLQLRIATRGAEQLAEGGRMVYSTCSLNPIEDEAVIASLLEKSEGALELADVSNELPGLKWMPGITQWKVMTKDGQWFTDWDAVPHSRHTQIRPTMFPPKDPEKLQAMHLERCLRILPHHQNTGGFFVAVLVKKSSMPWNKRQPKLQGKSAETRESTQLSPADLTEGKPTDPSKLESPSFTGTGDTEIAHATEDLENNGSKKDGVCGPPPSKKMKLFGFKEDPFVFIPEDDPLFPPIEKFYALDPSFPRMNLLTRTTEGKKRQLYMVSKELRNVLLNNSEKMKVINTGIKVWCRNNSGEEFDCAFRLAQEGIYTLYPFINSRIITVSMEDVKILLTQENPFFRKLSSETYSQAKDLAKGSIVLKYEPDSANPDALQCPIVLCGWRGKASIRTFVPKNERLHYLRMMGLEVLGEKKKEGVILTNESAASTGQPDNDVTEGQRAGEPNSPDAEEANSPDVTAGCDPAGVHPPR [NSUN2] | 46.6 | 49.2 | 0.0447 | -0.00496 | 5.62 | 11.8
3 | MGRSRSRSSSRSKHTKSSKHNKKRSRSRSRSRDKERVRKRSKSRESKRNRRRESRSRSRSTNTAVSRRERDRERASSPPDRIDIFGRTVSKRSSLDEKQKREEEEKKAEFERQRKIRQQEIEEKLIEEETARRVEELVAKRVEEELEKRKDEIEREVLRRVEEAKRIMEKQLLEELERQRQAELAAQKAREEEERAKREELERILEENNRKIAEAQAKLAEEQLRIVEEQRKIHEERMKLEQERQRQQKEEQKIILGKGKSRPKLSFSLKTQD [ARGLU1] | 51 | 50.4 | -1.03 | 0.866 | -5.79 | -4.86
4 | MGRVVAELVSSLLGLWLLLCSCGCPEGAELRAPPDKIAIIGAGIGGTSAAYYLRQKFGKDVKIDLFEREEVGGRLATMMVQGQEYEAGGSVIHPLNLHMKRFVKDLGLSAVQASGGLLGIYNGETLVFEESNWFIINVIKLVWRYGFQSLRMHMWVEDVLDKFMRIYRYQSHDYAFSSVEKLLHALGGDDFLGMLNRTLLETLQKAGFSEKFLNEMIAPVMRVNYGQSTDINAFVGAVSLSCSDSGLWAVEGGNKLVCSGLLQASKSNLISGSVMYIEEKTKTKYTGNPTKMYEVVYQIGTETRSDFYDIVLVATPLNRKMSNITFLNFDPPIEEFHQYYQHIVTTLVKGELNTSIFSSRPIDKFGLNTVLTTDNSDLFINSIGIVPSVREKEDPEPSTDGTYVWKIFSQETLTKAQILKLFLSYDYAVKKPWLAYPHYKPPEKCPSIILHDRLYYLNGIECAASAMEMSAIAAHNAALLAYHRWNGHTDMIDQDGLYEKLKTEL [PCYOX1] | 56.6 | 57.1 | 0.102 | -0.225 | 1.46 | 0.959
